Data published in publication PMC4140821, “Structural and Biochemical Characterization of the Cop9 Signalosome CSN5/CSN6 Heterodimer” (PLoS ONE, 2014).

How the values were obtained:
[1] = target: T1, CSN5^ΔC,WT (human CSN5 1–257 fragment) (human, UniProt Q92905 1-257); assay: ITC; CSN6^ΔC (WT and variants; 1 mM, 30 injections of 1.8 µL) injected into CSN5^ΔC (WT and variants; 100 µM) in the cell; 20°C; 20 mM Na MES pH 6.5, 75 mM NaCl; one site model; apparent; details: both partners purified
T1 construct: COP9 signalosome subunit 5 (CSN5, Jab1), human, residues 1-257 (MPN domain with N- and C-terminal appendices); also called CSN5 catalytic domain; Jab1 fragment
T1 sequence (Q92905 1-257, stated change not applied): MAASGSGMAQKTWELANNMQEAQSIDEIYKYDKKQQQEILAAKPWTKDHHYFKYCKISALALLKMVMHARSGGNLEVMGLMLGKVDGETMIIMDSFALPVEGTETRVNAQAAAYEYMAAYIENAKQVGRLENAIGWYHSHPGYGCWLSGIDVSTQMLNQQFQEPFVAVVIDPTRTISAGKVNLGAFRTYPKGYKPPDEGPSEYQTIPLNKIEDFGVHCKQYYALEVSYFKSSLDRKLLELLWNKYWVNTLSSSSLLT

CSN5^ΔC,R106T = target: T2, CSN5^ΔC,R106T (human, UniProt Q92905 1-257, R106T); assay: as above; details: both partners purified
T2 construct: COP9 signalosome subunit 5 (CSN5, Jab1), human, residues 1-257, R106T in the Ins-1 region; also called conformationally-relaxed CSN5^ΔC variant; R106T variant
T2 sequence (Q92905 1-257 R106T): as the sequence (Q92905 1-257, stated change not applied) above, with R106T counted along it

[2] = target: the molecule itself; assay: crystal structure; CSN6^ΔC alone; crystals at 18°C in 0.2 M tri-sodium citrate, 0.1 M Bis-Tris propane pH 6.5, 20% PEG3350; dimer generated by the crystallographic 2-fold

Kd [1]	binding result (CSN5^ΔC,R106T)	fold reduction in binding against WT CSN6^ΔC [1]	Binder	binding result [2]
6 ± 1 µM	binds		CSN6^ΔC (human CSN6 31–211 fragment) (domain or fragment, UniProt Q7L5N1 31-211, looked up, COP9 signalosome subunit 6 (CSN6), human, residues 31-211 (MPN domain with a C-terminal extension); Cloned in pGEX-6P1; Uniformly 15N-labelled for NMR; also called CSN6 N-terminal domain; CSN6 MPN domain; source: LB or 15NH4Cl M9 medium for NMR; not shown: GST, N-terminal, cleaved) MACGVTGSVSVALHPLVILNISDHWIRMRSQEGRPVQVIGALIGKQEGRNIEVMNSFELLSHTVEEKIIIDKEYYYTKEEQFKQVFKELEFLGWYTTGGPPDPSDIHVHKQVCEIIESPLFLKLNPMTKHTDLPVSVFESVIDIINGEATMLFAELTYTLATEEAERIGVDHVARMTATGS	binds
		5 fold	CSN6^ΔC,V115E (domain or fragment, human, UniProt Q7L5N1 31-211, looked up, COP9 signalosome subunit 6 (CSN6), human, residues 31-211, V115E; everywhere else V115E; also called V115E variant; not shown: GST, N-terminal, cleaved) MACGVTGSVSVALHPLVILNISDHWIRMRSQEGRPVQVIGALIGKQEGRNIEVMNSFELLSHTVEEKIIIDKEYYYTKEEQFKQEFKELEFLGWYTTGGPPDPSDIHVHKQVCEIIESPLFLKLNPMTKHTDLPVSVFESVIDIINGEATMLFAELTYTLATEEAERIGVDHVARMTATGS	
